T1: gD epitope-tagged LgR5 22-123 (amino acids 22-123 of SEQ ID NO: 67) with a C-terminal GPI anchor on … (human, UniProt O75473 22-123, C-terminal GPI anchor)
T1 sequence: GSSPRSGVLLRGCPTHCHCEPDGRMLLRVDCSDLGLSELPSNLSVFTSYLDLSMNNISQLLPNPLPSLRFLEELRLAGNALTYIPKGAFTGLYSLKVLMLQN

T2: gD epitope-tagged mouse LgR5 expressed on stably transfected 293 cells (mouse, UniProt Q9Z1P4 22-907)
T2 construct: also called gD-tagged mouse LgR5
T2 sequence: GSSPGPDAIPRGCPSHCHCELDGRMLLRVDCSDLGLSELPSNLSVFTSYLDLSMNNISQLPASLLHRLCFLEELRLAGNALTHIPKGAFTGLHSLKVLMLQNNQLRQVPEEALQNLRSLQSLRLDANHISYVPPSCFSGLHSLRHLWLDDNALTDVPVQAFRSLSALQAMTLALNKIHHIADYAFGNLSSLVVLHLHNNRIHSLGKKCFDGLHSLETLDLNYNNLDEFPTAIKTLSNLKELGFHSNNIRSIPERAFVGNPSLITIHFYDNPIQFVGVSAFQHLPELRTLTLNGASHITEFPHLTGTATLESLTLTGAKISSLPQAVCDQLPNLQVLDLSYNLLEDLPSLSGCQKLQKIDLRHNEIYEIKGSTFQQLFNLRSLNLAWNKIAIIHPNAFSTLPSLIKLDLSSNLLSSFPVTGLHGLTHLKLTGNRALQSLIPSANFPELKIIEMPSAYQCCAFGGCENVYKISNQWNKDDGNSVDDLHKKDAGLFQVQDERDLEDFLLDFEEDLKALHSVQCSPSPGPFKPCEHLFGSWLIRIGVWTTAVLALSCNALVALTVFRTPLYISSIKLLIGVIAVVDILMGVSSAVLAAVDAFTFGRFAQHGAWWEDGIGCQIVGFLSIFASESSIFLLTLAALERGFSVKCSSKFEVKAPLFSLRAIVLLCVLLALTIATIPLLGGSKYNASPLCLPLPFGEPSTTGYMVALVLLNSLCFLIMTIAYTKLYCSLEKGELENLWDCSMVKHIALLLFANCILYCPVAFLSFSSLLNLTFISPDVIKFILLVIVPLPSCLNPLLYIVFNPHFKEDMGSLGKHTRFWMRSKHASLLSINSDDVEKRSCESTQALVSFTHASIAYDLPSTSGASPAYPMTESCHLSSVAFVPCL

T3: human LgR5 ECD (amino acids 22-557 fused to His-Fc expressed in a baculovirus system, or amino acids 22-558 … (human, UniProt O75473 22-557))
T3 construct: not shown: C-terminal His-tagged Fc
T3 sequence: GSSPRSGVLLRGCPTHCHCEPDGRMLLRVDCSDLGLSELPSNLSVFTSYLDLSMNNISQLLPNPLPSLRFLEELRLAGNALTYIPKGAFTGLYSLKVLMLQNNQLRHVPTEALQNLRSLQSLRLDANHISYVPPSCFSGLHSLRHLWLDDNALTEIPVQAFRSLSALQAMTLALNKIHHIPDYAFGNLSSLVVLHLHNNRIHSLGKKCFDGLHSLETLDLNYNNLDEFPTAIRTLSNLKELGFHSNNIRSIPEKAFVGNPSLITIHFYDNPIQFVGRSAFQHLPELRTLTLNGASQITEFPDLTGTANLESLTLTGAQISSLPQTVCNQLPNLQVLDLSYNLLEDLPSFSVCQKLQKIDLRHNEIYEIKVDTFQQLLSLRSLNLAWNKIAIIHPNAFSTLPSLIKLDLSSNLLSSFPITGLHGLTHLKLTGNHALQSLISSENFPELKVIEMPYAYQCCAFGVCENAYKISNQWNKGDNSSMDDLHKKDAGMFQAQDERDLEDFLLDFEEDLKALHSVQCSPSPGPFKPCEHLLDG

B1: humanized monoclonal antibody 8E11.v2 (antibody, human IgG1, kappa, V domains shown)
VH: EVQLVQSGAEVKKPGASVKVSCKASGYTFSAYWIEWVRQAPGQGLEWIGEILPGSDSTDYNEKFKVRATFTSDTSTSTVYLELSSLRSEDTAVYYCARGGHYGSLDYWGQGTLVTVSS
VL: DIVMTQSPDSLAVSLGERATINCRASESVDNYGNSFMHWYQQKPGQPPKLLIYLASNLESGVPDRFSGSGSGTDFTLTISSLQAEDVAVYYCQQNYEDPFTFGQGTKVEIKR
notes: It was assessed as an IgG; also called hu8E11.v2; hu8E11v2
B2: human antibody YW353 (antibody, human IgG1, kappa, V domains shown)
VH: EVQLVESGGGLVQPGGSLRLSCAASGFTFTSYSISWVRQAPGKGLEWVAEIYPPGGYTDYADSVKGRFTISADTSKNTAYLQMNSLRAEDTAVYYCAKARLFFDYWGQGTLVTVSS
VL: DIQMTQSPSSLSASVGDRVTITCRASQDVSTAVAWYQQKPGKAPKLLIYSASFLYSGVPSRFSGSGSGTDFTLTISSLQPEDFATYYCQQSYTTPPTFGQGTKVEIKR
notes: also called huYW353
B3: chimeric monoclonal antibody 8E11 (antibody, human IgG1, V domains shown)
VH: QVQLQQSGTELMKPGASVKISCKATGYTFSAYWIEWIKQRPGHGLEWIGEILPGSDSTDYNEKFKVKATFSSDTSSNTVYIQLNSLTYEDSAVYYCARGGHYGSLDYWGQGTTLKVSS
VL: NIVLTQSPASLAVSLGQRATISCRASESVDNYGNSFMHWYQQKPGQPPKLLIYLASNLESGVPARFSGSGSRTDFTLTIDPVEADDAATYYCQQNYEDPFTFGSGTKVEIKR
notes: also called ch8E11; chimeric 8E11

How the values were obtained:
[1] = target: T1, gD epitope-tagged LgR5 22-123 (amino …); test: FACS on transiently transfected 293 cells
[2] = target: T2, gD epitope-tagged mouse LgR5 expressed …; test: Scatchard analysis, 125I-labelled antibody competed by unlabelled antibody on stably transfected 293 cells
Description: Scatchard analysis was performed following standard procedures (Holmes et al., Science 256:1205-1210 (1992)) to determine the relative binding affinities of YW353, ch8E11 and hu8E11v2 antibodies.
Anti-LgrS antibodies were [I¹²⁵] labeled using the indirect Iodogen method. […] Competition assay mixtures of 50 μL volume containing a fixed concentration of [I¹²⁵] labeled antibody and decreasing concentrations of serially diluted, unlabeled antibody were placed into 96-well plates. 293 cells stably expression human, rat, or mouse LgrS were cultured in growth media at 37° C. in 5% CO₂. Cells were detached from the flask using Sigma Cell Dissociation Solution and were washed with binding buffer, which consisted of Dulbecco's Modified Eagle Medium (DMEM) with 2% fetal bovine serum (FBS), 50 mM HEPES (pH 7.2) and 0.1% sodium azide. The washed cells were added to the 96 well plates at a density of 250,000 cells in 0.2 mL of binding buffer. The final concentration of the labeled antibody in each well was […]. The final concentration of the unlabeled antibody in the competition assay ranged from 500 nM through ten 2-fold diluation steps to a 0 nM buffer-only assay. Competition assays were carried out in triplicate. Competition assays were incubated for 2 hours at room temperature. After the 2-hour incubation, the competition assays were transferred to a Millipore Multiscreen filter plate (Billerica, Mass.) and washed 4 times with binding buffer to separate the free from bound [I¹²⁵] labeled antibody. The filters were counted on a Wallac Wizard 1470 gamma counter (PerkinElmer Life and Analytical Sciences Inc.; Wellesley, Mass.). The binding data was evaluated using NewLigand software (Genentech), which uses the fitting algorithm of Munson and Robard to determine the binding affinity of the antibody (Munson and Robard 1980)

[3] = target: T3, human LgR5 ECD (amino acids 22-557 …); test: SPR (BIAcore-3000), antibody captured by anti-human Fc, LgR5 ECD-Fc injected

Row | Binder | binding result [1] | Kd [2] | Kd [3]
1 | B1 | no binding (tested: 10 µg/ml) | 0.5 nM | –
2 | B2 | – | – | 1.6 nM
3 | B3 | no binding (tested: 10 µg/ml) | 0.2 nM | 2.4 nM

Source: US20130336885A1 (Genentech, published 2013)
